T1: MAGE-B2 peptide, G1A peptide on HLA-A*02:01 (human)
T1 peptide: AVYDGEEHSV

T2: MAGE-B2 peptide, G1T peptide on HLA-A*02:01 (human)
T2 peptide: TVYDGEEHSV

T3: MAGE-B2 peptide, D4W peptide on HLA-A*02:01 (human)
T3 peptide: GVYWGEEHSV

T4: MAGE-B2 peptide, G1Q peptide on HLA-A*02:01 (human)
T4 peptide: QVYDGEEHSV

T5: MAGE-B2 peptide, E7K peptide on HLA-A*02:01 (human)
T5 peptide: GVYDGEKHSV

T6: MAGE-B2 peptide, G1N peptide on HLA-A*02:01 (human)
T6 peptide: NVYDGEEHSV

T7: MAGE-B2 peptide, V2C peptide on HLA-A*02:01 (human)
T7 peptide: GCYDGEEHSV

T8: MAGE-B2 peptide, V2G peptide on HLA-A*02:01 (human)
T8 peptide: GGYDGEEHSV

T9: MAGE-B2 peptide, G5S peptide on HLA-A*02:01 (human)
T9 peptide: GVYDSEEHSV

T10: MAGE-B2 peptide, E7A peptide on HLA-A*02:01 (human)
T10 peptide: GVYDGEAHSV

T11: MAGE-B2 peptide, H8M peptide on HLA-A*02:01 (human)
T11 peptide: GVYDGEEMSV

T12: MAGE-B2 peptide, H8Q peptide on HLA-A*02:01 (human)
T12 peptide: GVYDGEEQSV

T13: MAGE-B2 peptide, S9F peptide on HLA-A*02:01 (human)
T13 peptide: GVYDGEEHFV

T14: MAGE-B2 peptide, H8V peptide on HLA-A*02:01 (human)
T14 peptide: GVYDGEEVSV

T15: MAGE-B2 peptide, H8L peptide on HLA-A*02:01 (human)
T15 peptide: GVYDGEELSV

T16: MAGE-B2 peptide, S9K peptide on HLA-A*02:01 (human)
T16 peptide: GVYDGEEHKV

T17: MAGE-A4 peptide on HLA-A*02:01 (human)
T17 peptide: GVYDGREHTV

T18: MAGE-B2 peptide, H8K peptide on HLA-A*02:01 (human)
T18 peptide: GVYDGEEKSV

T19: MAGE-B2 peptide, H8I peptide on HLA-A*02:01 (human)
T19 peptide: GVYDGEEISV

T20: MAGE-B2 peptide, E6S peptide on HLA-A*02:01 (human)
T20 peptide: GVYDGSEHSV

T21: MAGE-B2 peptide, E6C peptide on HLA-A*02:01 (human)
T21 peptide: GVYDGCEHSV

T22: MAGE-B2 peptide, H8T peptide on HLA-A*02:01 (human)
T22 peptide: GVYDGEETSV

T23: MAGE-B2 peptide, H8D peptide on HLA-A*02:01 (human)
T23 peptide: GVYDGEEDSV

T24: MAGE-B2 peptide, H8R peptide on HLA-A*02:01 (human)
T24 peptide: GVYDGEERSV

T25: MAGE-B2 peptide, E6T peptide on HLA-A*02:01 (human)
T25 peptide: GVYDGTEHSV

T26: MAGE-B2 peptide, E6M peptide on HLA-A*02:01 (human)
T26 peptide: GVYDGMEHSV

T27: MAGE-B2 peptide, H8G peptide on HLA-A*02:01 (human)
T27 peptide: GVYDGEEGSV

T28: MAGE-B2 peptide, H8C peptide on HLA-A*02:01 (human)
T28 peptide: GVYDGEECSV

T29: MAGE-B2 peptide, S9Y peptide on HLA-A*02:01 (human)
T29 peptide: GVYDGEEHYV

T30: MAGE-B2 peptide, S9R peptide on HLA-A*02:01 (human)
T30 peptide: GVYDGEEHRV

T31: MAGE-B2 peptide, E6Q peptide on HLA-A*02:01 (human)
T31 peptide: GVYDGQEHSV

T32: MAGE-B2 peptide, H8S peptide on HLA-A*02:01 (human)
T32 peptide: GVYDGEESSV

T33: MAGE-B2 peptide, S9H peptide on HLA-A*02:01 (human)
T33 peptide: GVYDGEEHHV

T34: MAGE-B2 peptide, E7I peptide on HLA-A*02:01 (human)
T34 peptide: GVYDGEIHSV

T35: MAGE-B2 peptide, S9M peptide on HLA-A*02:01 (human)
T35 peptide: GVYDGEEHMV

T36: MAGE-B2 peptide, E7W peptide on HLA-A*02:01 (human)
T36 peptide: GVYDGEWHSV

T37: MAGE-B2 peptide, S9L peptide on HLA-A*02:01 (human)
T37 peptide: GVYDGEEHLV

T38: MAGE-B2 peptide, E7T peptide on HLA-A*02:01 (human)
T38 peptide: GVYDGETHSV

T39: MAGE-B2 peptide, H8E peptide on HLA-A*02:01 (human)
T39 peptide: GVYDGEEESV

T40: MAGE-B2 peptide, E7F peptide on HLA-A*02:01 (human)
T40 peptide: GVYDGEFHSV

T41: MAGE-B2 peptide, E7S peptide on HLA-A*02:01 (human)
T41 peptide: GVYDGESHSV

B1: TCR1 (TCR, V domains shown)
Valpha: KQEVTQIPAALSVPEGENLVLNCSFTDSAIYNLQWFRQDPGKGLTSLLLIQSSQREQTSGRLNASLDKSSGRSTLYIAASQPGDSATYLCAAMKTSYDKVIFGPGTSLSVIP
Vbeta: GEEVAQTPKHLVRGEGQKAKLYCAPIKGHSYVFWYQQVLKNEFKFLISFQNENVFDETGMPKERFSAKCLPNSPCSLEIQATKLEDSAVYFCASSQGQGGYGYTFGSGTRLTVV
B2: TCR2 (TCR, V domains shown)
Valpha: QKEVEQNSGPLSVPEGAIASLNCTYSDRGSQSFFWYRQYSGKSPELIMSIYSNGDKEDGRFTAQLNKASQYVSLLIRDSQPSDSATYLCAVNIPFSNSGGYQKVTFGTGTKLQVIP
Vbeta: NAGVTQTPKFRVLKTGQSMTLLCAQDMNHEYMYWYRQDPGMGLRLIHYSVGEGTTAKGEVPDGYNVSRLKKQNFLLGLESAAPSQTSVYFCASRHPGQYNQPQHFGDGTRLSIL
B3: TCR3 (TCR, V domains shown)
Valpha: AQKVTQAQTEISVVEKEDVTLDCVYETRDTTYYLFWYKQPPSGELVFLIRRNSFDEQNEISGRYSWNFQKSTSSFNFTITASQVVDSAVYFCALSVLRMDSSYKLIFGSGTRLLVRP
Vbeta: NAGVTQTPKFRVLKTGQSMTLLCAQDMNHEYMYWYRQDPGMGLRLIHYSVGEGTTAKGEVPDGYNVSRLKKQNFLLGLESAAPSQTSVYFCASSLQGAGQPQHFGDGTRLSIL

What was measured:
Test in all cases: killing
[1] = molecular target: T1, MAGE-B2 peptide, G1A peptide on …
[2] = molecular target: T2, MAGE-B2 peptide, G1T peptide on …
[3] = molecular target: T3, MAGE-B2 peptide, D4W peptide on …
[4] = molecular target: T4, MAGE-B2 peptide, G1Q peptide on …
[5] = molecular target: T5, MAGE-B2 peptide, E7K peptide on …
[6] = molecular target: T6, MAGE-B2 peptide, G1N peptide on …
[7] = molecular target: T7, MAGE-B2 peptide, V2C peptide on …
[8] = molecular target: T8, MAGE-B2 peptide, V2G peptide on …
[9] = molecular target: T9, MAGE-B2 peptide, G5S peptide on …
[10] = molecular target: T10, MAGE-B2 peptide, E7A peptide on …
[11] = molecular target: T11, MAGE-B2 peptide, H8M peptide on …
[12] = molecular target: T12, MAGE-B2 peptide, H8Q peptide on …
[13] = molecular target: T13, MAGE-B2 peptide, S9F peptide on …
[14] = molecular target: T14, MAGE-B2 peptide, H8V peptide on …
[15] = molecular target: T15, MAGE-B2 peptide, H8L peptide on …
[16] = molecular target: T16, MAGE-B2 peptide, S9K peptide on …
[17] = molecular target: T17, MAGE-A4 peptide on HLA-A*02:01
[18] = molecular target: T18, MAGE-B2 peptide, H8K peptide on …
[19] = molecular target: T19, MAGE-B2 peptide, H8I peptide on …
[20] = molecular target: T20, MAGE-B2 peptide, E6S peptide on …
[21] = molecular target: T21, MAGE-B2 peptide, E6C peptide on …
[22] = molecular target: T22, MAGE-B2 peptide, H8T peptide on …
[23] = molecular target: T23, MAGE-B2 peptide, H8D peptide on …
[24] = molecular target: T24, MAGE-B2 peptide, H8R peptide on …
[25] = molecular target: T25, MAGE-B2 peptide, E6T peptide on …
[26] = molecular target: T26, MAGE-B2 peptide, E6M peptide on …
[27] = molecular target: T27, MAGE-B2 peptide, H8G peptide on …
[28] = molecular target: T28, MAGE-B2 peptide, H8C peptide on …
[29] = molecular target: T29, MAGE-B2 peptide, S9Y peptide on …
[30] = molecular target: T30, MAGE-B2 peptide, S9R peptide on …
[31] = molecular target: T31, MAGE-B2 peptide, E6Q peptide on …
[32] = molecular target: T32, MAGE-B2 peptide, H8S peptide on …
[33] = molecular target: T33, MAGE-B2 peptide, S9H peptide on …
[34] = molecular target: T34, MAGE-B2 peptide, E7I peptide on …
[35] = molecular target: T35, MAGE-B2 peptide, S9M peptide on …
[36] = molecular target: T36, MAGE-B2 peptide, E7W peptide on …
[37] = molecular target: T37, MAGE-B2 peptide, S9L peptide on …
[38] = molecular target: T38, MAGE-B2 peptide, E7T peptide on …
[39] = molecular target: T39, MAGE-B2 peptide, H8E peptide on …
[40] = molecular target: T40, MAGE-B2 peptide, E7F peptide on …
[41] = molecular target: T41, MAGE-B2 peptide, E7S peptide on …

Row | Binder | binding result [1] | binding result [5] | binding result [9] | binding result [10] | binding result [11] | binding result [12] | binding result [13] | binding result [14] | binding result [15] | binding result [16] | binding result [17] | binding result [18] | binding result [19] | binding result [20] | binding result [21] | binding result [22] | binding result [23] | binding result [24] | binding result [25] | binding result [26] | further results
1 | B1 | recognises | recognises | recognises | – | – | – | – | – | – | – | – | – | – | – | – | – | – | – | – | – | binding result [2]: recognises; binding result [3]: recognises; binding result [4]: recognises; binding result [6]: recognises; binding result [7]: recognises; binding result [8]: recognises
2 | B2 | recognises | – | – | recognises | recognises | recognises | recognises | recognises | recognises | recognises | no recognition | recognises | recognises | recognises | recognises | recognises | recognises | recognises | recognises | recognises | binding result [27]: recognises; binding result [28]: recognises; binding result [29]: recognises; binding result [30]: recognises; binding result [31]: recognises; binding result [32]: recognises; binding result [33]: recognises; binding result [34]: recognises; binding result [35]: recognises; binding result [36]: recognises; binding result [37]: recognises; binding result [38]: recognises; binding result [39]: recognises; binding result [40]: recognises; binding result [41]: recognises
3 | B3 | – | recognises | recognises | recognises | recognises | recognises | recognises | recognises | recognises | recognises | recognises | recognises | recognises | recognises | recognises | recognises | recognises | recognises | recognises | recognises | binding result [27]: recognises; binding result [28]: recognises; binding result [29]: recognises; binding result [30]: recognises; binding result [31]: recognises; binding result [32]: recognises; binding result [33]: recognises; binding result [34]: recognises; binding result [35]: recognises; binding result [36]: recognises; binding result [37]: recognises; binding result [38]: recognises; binding result [39]: recognises; binding result [40]: recognises; binding result [41]: recognises

From patent US20240100162A1 (published 2024)
